One substance from paper PMC8514949 can be followed below.

The target in this test is PI-3-kinase (human (endogenous in Caco2)) (UniProt P42338). The experiment in a line: co-IP; as the basal co-IP, but Caco2 Dsg2^WT cells incubated for 24h with TNFα (100 ng/ml) before lysis; Dsg2/PI-3-kinase ratio of optical densities, fold of controls, n=4.
Sequence of UniProt P42338 (P42338 whole entry): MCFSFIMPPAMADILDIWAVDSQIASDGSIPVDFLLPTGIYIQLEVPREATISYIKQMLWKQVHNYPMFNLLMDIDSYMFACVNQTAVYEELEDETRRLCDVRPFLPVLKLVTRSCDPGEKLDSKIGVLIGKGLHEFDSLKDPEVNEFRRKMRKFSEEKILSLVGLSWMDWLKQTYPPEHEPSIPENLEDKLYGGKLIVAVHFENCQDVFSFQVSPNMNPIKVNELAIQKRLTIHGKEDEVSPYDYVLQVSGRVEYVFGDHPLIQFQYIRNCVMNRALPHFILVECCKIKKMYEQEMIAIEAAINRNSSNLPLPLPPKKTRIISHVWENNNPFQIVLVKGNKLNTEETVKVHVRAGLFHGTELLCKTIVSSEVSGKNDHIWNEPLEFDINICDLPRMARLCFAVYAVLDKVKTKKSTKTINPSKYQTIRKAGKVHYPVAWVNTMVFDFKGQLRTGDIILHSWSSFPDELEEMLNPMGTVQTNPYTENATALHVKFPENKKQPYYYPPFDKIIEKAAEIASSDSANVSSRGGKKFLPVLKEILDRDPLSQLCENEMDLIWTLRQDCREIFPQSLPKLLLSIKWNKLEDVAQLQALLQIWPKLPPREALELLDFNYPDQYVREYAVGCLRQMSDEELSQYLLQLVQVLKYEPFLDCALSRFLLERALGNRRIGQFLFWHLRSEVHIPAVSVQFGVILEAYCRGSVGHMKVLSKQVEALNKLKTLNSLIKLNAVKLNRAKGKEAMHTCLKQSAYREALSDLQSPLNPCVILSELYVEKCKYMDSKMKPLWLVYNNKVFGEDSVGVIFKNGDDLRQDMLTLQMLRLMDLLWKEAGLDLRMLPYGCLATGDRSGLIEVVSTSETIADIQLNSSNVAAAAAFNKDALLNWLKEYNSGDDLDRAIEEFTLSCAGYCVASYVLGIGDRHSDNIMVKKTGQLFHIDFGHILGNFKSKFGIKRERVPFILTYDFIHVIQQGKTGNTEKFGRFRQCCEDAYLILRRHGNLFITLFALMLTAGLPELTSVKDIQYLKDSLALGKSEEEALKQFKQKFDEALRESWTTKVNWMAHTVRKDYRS

“Desmoglein 2 (from UniProt Q14126 50-1118) (natural protein)”: the fold of controls (Dsg2/PI-3-kinase ratio in the co-IP, after TNFα) (fold of controls) stood at 0.34.
